# From the nanobody polyreactivity screen of Harvey et al. (2022)
# Assay: yeast display, Sf9 membrane polyspecificity reagent, FACS + sequencing; frameworks hold sequencing errors
# Procedure, shortened: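 Nanobodies came from a synthetic yeast display library in Saccharomyces cerevisiae BJ5465, induced with galactose for 36–48 hours and stained for 1 hour at 4 °C with 10% biotinylated, detergent-solubilized Sf9 membrane reagent. Cells were enriched on streptavidin microbeads and then FACS-sorted, with low and high (top ~1%) gates set on anti-HA fluorescence for expression and streptavidin fluorescence for reagent binding. Each polyreactivity label reflects the gate a clone came from. Genes were amplified by colony PCR, sequenced by MiSeq 2 × 250 and filtered by CDR length.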
row,Sequence,polyreactivity (PSR sort gate)
1,QVQLVESGGGLVQAGGSLRLSCAASGIIFWLYTMGWYRQAPGKERELVAAITSGGSTYYAESVKGRFTISRDNAKNTVYLQMNSLKPEDTAVYYCAAVSRAPGLRYDYWGQGTQVTVSS,high polyreactivity
2,QVQLVESGGGLVQAGGSLRLSCAASGIIFWRYAMGWYRQAPGKERELVASISSSGGRTYYADSVKGRFTISRDNAKNTVYLQMNSLKPEDTAVYYCAARGPYGYDLLYYWGQGTQVTVSS,high polyreactivity
3,QVQLVESGGGLVQAGGSLRLSCAASGIIFWYYAMGWYIQAPGKERELVAAFSSGGSTTYADSVKGRFTISRDNAKNTVYLQINSLKPEDTAVYYCAASVRGIRYDYWGQGTQVTVSS,low polyreactivity
4,QVQLVESGGGLVQAGGSLRLSCAASGIIFWYYAMGWYRQAPGKERELVAAISRGGTTYYADSVKGRFTISRDNAKNTVYLQMNSLKPEDTAVYYCAAGVRYRLTRYFYPDFDYWGQGTQVTVSS,high polyreactivity
5,QVQLVESGGGLVQAGGSLRLSCAASGIIFYAYAMGWYRQAPGKETELVAAITFSAVSTNYADSVKGRFTISRDYAKNTVYLQMNSLKPEDTAVYYCAAEAYKHGVWDYDYWGQGTQVTVSS,low polyreactivity
6,QVQLVESGGGLVQAGGSLRLSCAASGIIFYAYVMGWYRQAPGKERELVAAITVSGGSTYYADSVKGRFTISRDNAKNTVYLQMNSLKPEDTAVYYCAADWNFYQRTFDSWGQGTQVTVSS,low polyreactivity
7,QVQLVESGGGLVQAGGSLRLSCAASGIIFYDYAMGWYRQAPGKERELVAAISKRGGSTYYADSVKGRFTISRDNAKNTVYLQMNSLKPEDTAVYYCAAKYYRYGDPDRYDYWGQGTQVTVSS,high polyreactivity
8,QVQLVESGGGLVQAGGSLRLSCAASGIIFYDYAMGWYRQAPGKERELVATITRGGGTKYADSVKGRFTISRDNAKNTVYLQMNSLKQEDTAVYYCAADSHGDYEGDYWGQGTQVTVSS,low polyreactivity
9,QVQLVESGGGLVQAGGSLRLSCAASGIIFYFYAMGWYRQAPGKERELVAAITSSGGSTYYADSVKGRFTISRDNAKNTVYLQMNSLKPEDTAVYYCAADSLHGRKFRGVDYWGQGTQVTVSS,low polyreactivity
10,QVQLVESGGGLVQAGGSLRLSCAASGIIFYGNTLGWYRQAPGKERELVAGIDFSDDSTNYADSVKGRFTISRDNAKNSVYLLRNSLKPEDTAVYYCAADTRSPSAQEVDYWGQGTQVTVSS,low polyreactivity
11,QVQLVESGGGLVQAGGSLRLSCAASGIIFYGYVMGWYRQAPGKERELVATITSSGGSTYYADSVKGRFTISRDNAKNSVYLQMNSLKPEDTAVYYCAADYYYGAWVRHDYWGQGTQVTVSS,low polyreactivity
12,QVQLVESGGGLVQAGGSLRLSCAASGIIFYHYPMGWYRQAPGKERELVAAITGSGIRTYYADSVKGRFTISRDNAMNTVYLQMNSLKPEDTAVYYCGAQQRYWSTYGYWGQGTQVTVSS,high polyreactivity
13,QVQLVESGGGLVQAGGSLRLSCAASGIIFYIYTMGWYRQAPGKERELVAAINRSGSRTYYADSVKGRFTISRDYAKNNVYLQMNSLKPEDTAVYYCAAGTGSRDDYWGQGTQVTVST,high polyreactivity
14,QVQLVESGGGLVQAGGSLRLSCAASGIIFYKNAMGWYRQAPGKERELVAAISGSGGRTYYADSVKGRFTISRDNAKKTVYLQMNSLKPEDTAVYYCAARKPYRHGYESWGQGTQVTVSS,high polyreactivity
15,QVQLVESGGGLVQAGGSLRLSCAASGIIFYKYAMGWKRQGPGKERELVAAITSGGRRTYYADSVKGRFTISRDNAKNTVYLLMNSLKPEDTEAFYCAARFSYPWLYLFVYWGQVTQVTVSS,high polyreactivity
16,QVQLVESGGGLVQAGGSLRLSCAASGIIFYKYAMGWYRQAPGKERELVAAITSGGGRTYYADSVKGRFTISRDNAKNTVYLQMNSLKPEDTAVYYCAATRPATYAAYDYWGQGTQVTVSS,high polyreactivity

row,Sequence,polyreactivity (PSR sort gate)
1,QVQLVESGGGLVQAGGSLRLSCAASGIIFYLNAMGWYRQAPGKERELVAAISNGTSTNYADSVKGRFTISRDNAKNTVYLQMNSLKPEDTAVFYCAADDLRYNSRSSNYRGDYWGQGTQVTVSS,low polyreactivity
2,QVQLVESGGGLVQAGGSLRLSCAASGIIFYLNAMGWYRQAPGKERELVAGITYSGGSTYYADSVKGRFTISRDNAKNTVYLQMNSLKPEDTAVYYCAARTKWYIFLYDYWGQGTQVTVSS,low polyreactivity
3,QVQLVESGGGLVQAGGSLRLSCAASGIIFYPNAMGWYRQAPGKERELVAAITSDGSTYYADSVKGRFTISRDNAKNTVYLQMNSLKPEDTAVYYCAAWDDYGYDYWGQGTQVTVSS,low polyreactivity
4,QVQLVESGGGLVQAGGSLRLSCAASGIIFYRNAMGWYRQAPGKERELVAAISKGGGSTYYADSVKGRFTISRDNAKNTVYLQMNSLKPEDTAVYYCAAKAYTYYARIGFDYWGQGTQVTVSS,high polyreactivity
5,QVQLVESGGGLVQAGGSLRLSCAASGIIFYRNAMGWYRQAPGNERELVAAITSSGGRTYYADSVKGRFTISRDNAKNTVYLQMNSLKPEDTPVYYCAATRLYWKIFYGDGDYWGQGTQVTVSS,high polyreactivity
6,QVQLVESGGGLVQAGGSLRLSCAASGIIFYRNTMGWYRQAPGKERELVAAIRRGGNTYYADSVKGRFTISRDNAKNTVYLQMNSLKPEDTAVYYCAASAGPRASYYYWGQGTQVTVSS,high polyreactivity
7,QVQLVESGGGLVQAGGSLRLSCAASGIIFYRYTMGWYRQAPGKERELVAAISSRGGSTYYADSVKGRFTISRDNAKNTVYLQMNSLKPEDTAVYYWNARSKRTARYNYWGQGTQVTVSS,high polyreactivity
8,QVQLVESGGGLVQAGGSLRLSCAASGIIFYRYTMGWYRQAPGKERELVAAITSGGDTNYADSVKGRFTISRDNAKNTVYLQMNSLKPEDTAVYYCNADWWWYLYLYDYWGQGTQVTVSS,high polyreactivity
9,QVQLVESGGGLVQAGGSLRLSCAASGIIFYVYAMGWYRQAPVKERELVAAISDTAGDTYYADSVKGRFTISRDNAKNTVYLQMNSLKPEDTAVYYCATDWFSYRGGIFDSWGQGTQVTVSS,low polyreactivity
10,QVQLVESGGGLVQAGGSLRLSCAASGIIFYYNAMGWNRKAPGKERELVAAISQRGSSTYYADSVKGRFTISRDNAQNTVYLQMNSLKPEDTAVYYCAKRFIYGRYNYWGQGTQVTVSS,high polyreactivity
11,QVQLVESGGGLVQAGGSLRLSCAASGIIFYYNAMGWYRQAPGKERELVAAISSSGGSTSYADSVKGRFTISRDNAKNTVYLQMNSLKPEDTAVYYCAADSSPAYLGFVGFDYWGQGTQVTVSS,low polyreactivity
12,QVQLVESGGGLVQAGGSLRLSCAASGIIFYYNAMGWYRQAPGKERELVATIRWRGGSTYYADSVKGRFTISRDNAKNTVYLQMNSLKPEDTAVYYCNKSYDNSSDSDYWGQGTQVTVSS,low polyreactivity
13,QVQLVESGGGLVQAGGSLRLSCAASGIIFYYNAMGWYRQAPGKEREYVASISSRGGSTYYADSVKGRFTISRDNAKNTVYLQMKSLKPEDPAVYYCAAAFDWRRQRYNYWGHGTQVTVSS,high polyreactivity
14,QVQLVESGGGLVQAGGSLRLSCAASGIIIDSNAMGWYRQAPGKERELVAAITSGGSTKYADSVKGRFTISRDNAKNTVYLQMNSLKPEDTAVYYCAAGGSYYRDDYWGQGTQVTVSS,low polyreactivity
15,QVQLVESGGGLVQAGGSLRLSCAASGIIIDSNAMGWYRQAPGKERELVAAITSGGSTKYADSVKGRFTISRDNAKNTVYLQMNSLKPEDTAVYYCNADFRQADQCSYFYEMDSWGQGTQVTVSS,low polyreactivity
16,QVQLVESGGGLVQAGGSLRLSCAASGIIIGSNAMGWYRQAPGKERELVAAISDSGGSTYYADSVKGRFTISRDNAKNTVYLQMNSLKPEDTAVYYCAAAGRGSWTTYRFDYWGQGTQVTVSS,high polyreactivity
